Ends that are not written are not given here.
T1: pro-MMP-2 (UniProt P08253 30-660, limits assumed)
T1 sequence (looked up): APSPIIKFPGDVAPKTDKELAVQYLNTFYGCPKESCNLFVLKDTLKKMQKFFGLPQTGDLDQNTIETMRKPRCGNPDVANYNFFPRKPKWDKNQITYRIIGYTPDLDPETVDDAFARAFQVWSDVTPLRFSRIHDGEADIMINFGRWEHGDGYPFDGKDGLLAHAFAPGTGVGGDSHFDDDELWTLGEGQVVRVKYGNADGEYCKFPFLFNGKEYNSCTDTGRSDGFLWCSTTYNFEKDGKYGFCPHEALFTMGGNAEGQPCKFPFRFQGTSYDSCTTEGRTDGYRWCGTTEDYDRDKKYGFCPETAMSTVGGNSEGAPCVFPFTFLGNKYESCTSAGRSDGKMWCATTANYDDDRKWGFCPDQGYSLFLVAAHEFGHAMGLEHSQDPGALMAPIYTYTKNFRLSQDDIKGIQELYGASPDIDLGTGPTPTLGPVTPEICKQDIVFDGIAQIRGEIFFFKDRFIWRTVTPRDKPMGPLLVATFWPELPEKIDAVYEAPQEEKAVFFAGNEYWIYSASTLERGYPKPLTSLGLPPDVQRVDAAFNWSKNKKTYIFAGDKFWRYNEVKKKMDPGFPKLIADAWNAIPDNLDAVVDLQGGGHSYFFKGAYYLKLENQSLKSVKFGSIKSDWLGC

B1: CRV phage (CRVYGPYLLC displayed on phage) (peptide)
peptide: CRVYGPYLLC
modifications: cysteine pairing not given here; also: displayed on phage as coat protein fusion
notes: also called phage carrying CRV
B2: fibronectin-derived peptide TTPNSLLVSWQPPRARIT (peptide)
peptide: TTPNSLLVSWQPPRARIT
notes: Synthesized on a cellulose membrane (pepspot); also called PPC-like fibronectin peptide
B3: MMP-9 collagen binding domain (CBD), amino acids Gly204-Gly373 (other, UniProt P14780 223-392, looked up)
chain: GNADGAACHFPFIFEGRSYSACTTDGRSDGLPWCSTTANYDTDDRFGFCPSERLYTQDGNADGKPCQFPFIFQGQSYSACTTDGRSDGYRWCATTANYDRDKLFGFCPTRADSTVMGGNSAGELCVFPFTFLGKEYSTCTSEGRGDGRLWCATTSNFDSDKKWGFCPDQG
modifications: biotinylated with sulfo-NHS-LC-biotin in some experiments
notes: range 223-392; Vector-derived residues (start Met from the NdeI site) not described further; also called recombinant CBD; biotinylated CBD
B4: PPC peptide-bearing phage (CGYGRFSPPC displayed on phage) (peptide)
peptide: CGYGRFSPPC
modifications: cysteine pairing not given here; also: displayed on phage
notes: also called PPC phage; phage carrying PPC
B5: phage peptide CGWGRYSPPC (peptide)
peptide: CGWGRYSPPC
modifications: cysteine pairing not given here; also: displayed on phage
notes: selected by biopanning
B6: phage peptide CGFGRWQPPC (peptide)
peptide: CGFGRWQPPC
modifications: cysteine pairing not given here; also: displayed on phage
notes: selected by biopanning
B7: pro-MMP-9 (purified human pro-matrix metalloproteinase-9) (enzyme, UniProt P14780 20-707, looked up)
chain: APRQRQSTLVLFPGDLRTNLTDRQLAEEYLYRYGYTRVAEMRGESKSLGPALLLLQKQLSLPETGELDSATLKAMRTPRCGVPDLGRFQTFEGDLKWHHHNITYWIQNYSEDLPRAVIDDAFARAFALWSAVTPLTFTRVYSRDADIVIQFGVAEHGDGYPFDGKDGLLAHAFPPGPGIQGDAHFDDDELWSLGKGVVVPTRFGNADGAACHFPFIFEGRSYSACTTDGRSDGLPWCSTTANYDTDDRFGFCPSERLYTQDGNADGKPCQFPFIFQGQSYSACTTDGRSDGYRWCATTANYDRDKLFGFCPTRADSTVMGGNSAGELCVFPFTFLGKEYSTCTSEGRGDGRLWCATTSNFDSDKKWGFCPDQGYSLFLVAAHEFGHALGLDHSSVPEALMYPMYRFTEGPPLHKDDVNGIRHLYGPRPEPEPRPPTTTTPQPTAPPTVCPTGPPTVHPSERPTAGPTGPPSAGPTGPPTAGPSTATTVPLSPVDDACNVNIFDAIAEIGNQLYLFKDGKYWRFSEGRGSRPQGPFLIADKWPALPRKLDSVFEERLSKKLFFFSGRQVWVYTGASVLGPRRLDKLGLGADVAQVTGALRSGRGKMLLFSGRRLWRFDVKAQMVDPRSASEVDRMFPGVPLDTHDVFQYREKAYFCQDRFYWRVSSRSELNQVDQVGYVTYDILQCPED
notes: Purified proenzyme in plate assays; endogenous pro-MMP-9 of HT1080 and THP-1 cells in the co-immunoprecipitations
B8: integrin β5 I-EGF2+3 fragment (Glu476-Asn563) with N-terminal His6-tag (receptor, UniProt P18084 499-586, looked up)
chain: ECQDGENQSVYQNLCREAEGKPLCSGRGDCSCNQCSCFESEFGKIYGPFCECDNFSCARNKGVLCSGHGECHCGECKCHAGYIGDNCN
modifications: biotinylated where used as the labelled ligand
notes: range 476-563; also called I-EGF2+3 fragment of β5 integrin; biotinylated β5 I-EGF2+3; not shown: N-terminal His6-tag from the pHAT2 vector

Experiments:
[1] = target: B3; experiment: phage binding assay
[2] = target: T1, pro-MMP-2; experiment: phage binding assay
[3] = target: pro-MMP-3 (UniProt P08254 18-477, limits assumed); experiment: phage binding assay
pro-MMP-3, sequence (P08254 18-477 limits assumed): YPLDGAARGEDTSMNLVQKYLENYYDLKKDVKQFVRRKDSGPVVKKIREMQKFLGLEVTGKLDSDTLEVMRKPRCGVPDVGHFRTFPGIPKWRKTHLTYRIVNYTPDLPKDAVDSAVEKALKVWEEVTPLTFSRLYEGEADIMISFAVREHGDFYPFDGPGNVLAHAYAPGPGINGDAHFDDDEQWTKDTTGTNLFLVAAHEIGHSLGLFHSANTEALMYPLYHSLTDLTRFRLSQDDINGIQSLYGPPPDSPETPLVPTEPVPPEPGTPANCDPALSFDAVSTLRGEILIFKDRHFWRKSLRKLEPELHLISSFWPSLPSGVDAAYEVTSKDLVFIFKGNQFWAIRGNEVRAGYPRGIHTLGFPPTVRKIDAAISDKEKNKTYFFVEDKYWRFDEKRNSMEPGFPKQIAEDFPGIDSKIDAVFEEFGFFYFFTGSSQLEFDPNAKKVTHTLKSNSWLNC

[4] = target: T2, pro-MMP-9-ΔHC (Ala1-Gly424), pro-MMP-9 lacking the hinge region and the C domain (UniProt P14780 20-444); experiment: phage binding assay (not shown)
T2 construct: range 20-444

[5] = target: B3; experiment: pepspot membrane assay, chemiluminescence
[6] = target: T3, urea-denaturated human plasma vitronectin (human, UniProt P04004 20-478); experiment: solid phase binding assay (discussion)
T3 construct: also called VN
T3 sequence (P04004 20-478 limits assumed): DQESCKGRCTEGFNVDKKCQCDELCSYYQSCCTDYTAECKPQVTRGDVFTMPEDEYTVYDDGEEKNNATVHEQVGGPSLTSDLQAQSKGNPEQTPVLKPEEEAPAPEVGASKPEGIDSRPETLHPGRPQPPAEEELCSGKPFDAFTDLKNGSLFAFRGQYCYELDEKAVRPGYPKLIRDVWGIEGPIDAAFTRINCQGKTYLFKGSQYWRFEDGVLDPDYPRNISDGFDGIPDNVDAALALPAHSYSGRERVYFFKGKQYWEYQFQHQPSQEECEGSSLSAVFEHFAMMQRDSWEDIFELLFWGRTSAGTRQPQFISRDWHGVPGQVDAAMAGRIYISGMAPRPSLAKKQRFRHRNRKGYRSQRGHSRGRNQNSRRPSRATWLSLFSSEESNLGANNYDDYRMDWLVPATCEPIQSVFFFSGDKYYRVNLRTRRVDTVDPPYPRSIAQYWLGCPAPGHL

[7] = target: B7; experiment: phage display selection; table of pro-MMP-9 binding peptide sequences, group I CBD-binding; (6) is the number of isolated phage
[8] = target: B7; experiment: phage display selection; table of pro-MMP-9 binding peptide sequences, group I CBD-binding
[9] = target: T4, αVβ3 integrin of HT1080 cells (human, UniProt P06756 31-1048; P05106 27-788); experiment: immunoprecipitation with anti-integrin antisera, western blot for MMP-9
T4 construct: whole, on cells
T4 sequence (P06756 31-1048, chain 1 of 2): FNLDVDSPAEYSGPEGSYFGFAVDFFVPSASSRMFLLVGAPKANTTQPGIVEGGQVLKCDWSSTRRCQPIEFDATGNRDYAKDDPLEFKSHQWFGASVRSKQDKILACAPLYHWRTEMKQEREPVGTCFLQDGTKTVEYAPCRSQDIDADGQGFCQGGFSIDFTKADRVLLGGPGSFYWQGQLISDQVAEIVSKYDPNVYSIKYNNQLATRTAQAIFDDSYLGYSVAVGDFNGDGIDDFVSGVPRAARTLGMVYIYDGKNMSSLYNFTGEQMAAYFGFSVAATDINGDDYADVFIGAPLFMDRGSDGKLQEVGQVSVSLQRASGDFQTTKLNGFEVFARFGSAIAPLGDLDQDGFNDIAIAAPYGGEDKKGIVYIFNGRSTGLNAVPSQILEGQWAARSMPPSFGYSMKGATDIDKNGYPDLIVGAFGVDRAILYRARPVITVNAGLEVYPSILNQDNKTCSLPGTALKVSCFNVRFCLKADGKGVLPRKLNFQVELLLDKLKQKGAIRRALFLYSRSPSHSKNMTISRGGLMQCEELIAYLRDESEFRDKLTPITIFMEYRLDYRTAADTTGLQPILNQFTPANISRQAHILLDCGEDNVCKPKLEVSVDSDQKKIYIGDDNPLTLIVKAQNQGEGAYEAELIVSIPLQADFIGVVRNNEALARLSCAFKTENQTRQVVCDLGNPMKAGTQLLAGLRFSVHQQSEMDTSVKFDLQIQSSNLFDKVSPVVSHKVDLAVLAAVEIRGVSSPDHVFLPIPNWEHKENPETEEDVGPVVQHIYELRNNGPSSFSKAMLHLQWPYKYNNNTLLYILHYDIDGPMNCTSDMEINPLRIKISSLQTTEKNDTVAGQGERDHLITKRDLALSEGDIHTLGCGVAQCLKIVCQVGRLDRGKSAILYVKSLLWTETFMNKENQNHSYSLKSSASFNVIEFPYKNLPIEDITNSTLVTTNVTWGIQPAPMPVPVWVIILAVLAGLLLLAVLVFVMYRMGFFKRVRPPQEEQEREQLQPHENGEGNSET
T4 sequence (P05106 27-788, chain 2 of 2): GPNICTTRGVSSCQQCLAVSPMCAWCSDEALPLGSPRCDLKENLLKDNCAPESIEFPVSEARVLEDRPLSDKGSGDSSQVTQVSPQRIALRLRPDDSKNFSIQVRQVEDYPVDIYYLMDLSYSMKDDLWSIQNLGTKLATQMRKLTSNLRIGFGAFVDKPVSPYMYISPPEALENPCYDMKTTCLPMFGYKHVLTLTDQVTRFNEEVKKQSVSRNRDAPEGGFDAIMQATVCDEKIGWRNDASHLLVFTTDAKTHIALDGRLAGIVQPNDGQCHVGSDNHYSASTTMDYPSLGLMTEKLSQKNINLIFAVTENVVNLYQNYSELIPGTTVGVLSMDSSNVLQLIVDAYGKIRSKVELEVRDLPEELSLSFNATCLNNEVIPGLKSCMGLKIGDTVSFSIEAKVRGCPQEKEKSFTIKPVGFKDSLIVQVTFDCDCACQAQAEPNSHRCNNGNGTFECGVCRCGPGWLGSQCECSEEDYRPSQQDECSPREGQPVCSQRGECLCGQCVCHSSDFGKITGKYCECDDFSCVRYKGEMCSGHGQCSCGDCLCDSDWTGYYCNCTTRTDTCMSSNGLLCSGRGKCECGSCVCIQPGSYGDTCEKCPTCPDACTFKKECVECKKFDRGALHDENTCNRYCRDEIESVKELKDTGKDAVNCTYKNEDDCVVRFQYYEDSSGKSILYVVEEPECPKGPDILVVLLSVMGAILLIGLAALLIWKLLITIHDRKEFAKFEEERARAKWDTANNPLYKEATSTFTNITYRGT

[10] = target: platelet integrin αIIbβ3 (UniProt P08514 32-1039; P05106 27-788); experiment: pro-MMP-9 on immobilized integrin, read out by biotinylated gelatin
platelet integrin αIIbβ3, sequence (P08514 32-1039, chain 1 of 2): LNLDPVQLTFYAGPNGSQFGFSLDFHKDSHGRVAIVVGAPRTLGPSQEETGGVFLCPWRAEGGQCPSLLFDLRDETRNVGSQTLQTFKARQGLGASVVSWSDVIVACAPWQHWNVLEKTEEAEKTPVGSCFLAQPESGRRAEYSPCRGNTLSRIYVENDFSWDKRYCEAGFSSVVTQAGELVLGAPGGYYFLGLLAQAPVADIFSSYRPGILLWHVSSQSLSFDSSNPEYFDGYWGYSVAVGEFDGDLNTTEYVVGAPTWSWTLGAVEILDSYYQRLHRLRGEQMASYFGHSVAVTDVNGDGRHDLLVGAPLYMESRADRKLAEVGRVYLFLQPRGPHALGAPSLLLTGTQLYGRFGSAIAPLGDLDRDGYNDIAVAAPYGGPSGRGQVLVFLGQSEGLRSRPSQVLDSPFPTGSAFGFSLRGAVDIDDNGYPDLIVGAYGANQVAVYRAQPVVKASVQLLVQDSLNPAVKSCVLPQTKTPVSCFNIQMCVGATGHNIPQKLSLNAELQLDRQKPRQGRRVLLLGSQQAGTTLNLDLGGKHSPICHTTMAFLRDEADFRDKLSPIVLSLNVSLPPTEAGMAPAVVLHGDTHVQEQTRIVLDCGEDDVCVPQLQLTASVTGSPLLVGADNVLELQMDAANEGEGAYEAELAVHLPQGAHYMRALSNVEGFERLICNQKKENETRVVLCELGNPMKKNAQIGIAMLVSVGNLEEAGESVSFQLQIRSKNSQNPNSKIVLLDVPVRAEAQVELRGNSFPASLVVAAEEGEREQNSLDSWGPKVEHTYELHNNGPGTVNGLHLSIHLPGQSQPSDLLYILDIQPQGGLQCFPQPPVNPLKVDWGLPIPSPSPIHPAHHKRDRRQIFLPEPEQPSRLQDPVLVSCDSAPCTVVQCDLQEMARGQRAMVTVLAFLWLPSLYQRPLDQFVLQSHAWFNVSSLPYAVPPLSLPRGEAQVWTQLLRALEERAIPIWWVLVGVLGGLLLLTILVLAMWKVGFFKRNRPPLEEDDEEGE
platelet integrin αIIbβ3, sequence (P05106 27-788, chain 2 of 2): as the sequence (P05106 27-788, chain 2 of 2) above

[11] = target: the molecule itself; experiment: solid phase assay, streptavidin-peroxidase
[12] = target: B3; experiment: solid phase assay, streptavidin-peroxidase
[13] = target: T3, urea-denaturated human plasma …; experiment: solid phase assay, streptavidin-peroxidase

Which results are given for B1?
binding result [1]: no binding (tested: 20 ng/well; 10^8 transducing units/well); binding result [2]: no binding (tested: 20 ng/well; 10^8 transducing units/well); binding result [3]: no binding (tested: 20 ng/well; 10^8 transducing units/well); binding result [4]: no binding

Does B2 bind [5]?
Result: binds

Does B3 bind [6]?
Result: binds

Does B4 bind [7]?
Result: binds

Does B5 bind [8]?
Result: binds

Does B6 bind [8]?
Result: binds

Does B7 bind [9]?
Result: no binding

Does B7 bind [10]?
Result: no binding

Does B8 bind [11]?
Result: no binding (tested: biotinylated fragment 2.5 µg/ml)

Does B8 bind [12]?
Result: no binding (tested: biotinylated fragment 2.5 µg/ml)

Does B8 bind [13]?
Result: no binding (tested: biotinylated fragment 2.5 µg/ml)

— patent US20070207967A1 (CTT CANCER TARGETING TECHNOLOGIES, published 2007)
